Assay [1] concerns the target MN gp120 (no modifications) (HIV-1). Put plainly: Kd table; row B.MN gp120, column CH01 gD-; method not given.
The target of assay [2] is A244 gDΔ11 gp120 (Herpes simplex virus; HIV-1). Put plainly: Kd table; row AE.A244 gp120, column CH01 gD+; method not given.
The target in assay [3] is A244 gp120 (no modifications) (HIV-1). Nature of the assay: SPR titration, binding to CH01 mAb; A244 gDneg at [10] to [100], unit inferred; the sheet prints a slash where a decimal point is meant (kd/ka as printed gives 3.1 µM).
In assay [4] the target is A244 Δ11 gp120 (HIV-1). Put plainly: SPR titration, binding to CH01 mAb; A244 gDneg D11 at [10] to [100], unit inferred.
For assay [5], the target named is A244 gp120 (no modifications) (HIV-1). Put plainly: SPR titration, binding to CH01 mAb; A244 gDneg at [10], [25], [50], [75], [100], unit inferred.
Assay [6] concerns the target A244 Δ11 gp120 (HIV-1). Nature of the assay: SPR blocking on immobilized A244 Δ11 gp120, mAb injected to near saturation, then RV144 vaccinee IgG; against 7B2 control.
In assay [7] the target is A244 gp120 (no modifications) (HIV-1). Nature of the assay: Kd table; row AE.A244 gp120, column CH01 gD-; method not given.
For assay [8], the target named is A244 Δ11 gp120 (HIV-1). Nature of the assay: SPR, mAb captured on anti-Fc surface, monomeric gp120 as analyte.
In assay [9] the target is A244 gDΔ11 gp120 (Herpes simplex virus; HIV-1). Described as above.
Assay [10] deals with A244 gp120 (no modifications) (HIV-1). The assay is described as above.
The target of assay [11] is A244 Δ11 gp120 (HIV-1). Put plainly: SPR.
Assay [12] has as its target A244 gDΔ11 gp120 (Herpes simplex virus; HIV-1). Put plainly: SPR.
Assay [13] shares this target. Nature of the assay: SPR titration, binding to CH01 mAb; A244 gD+ 293Tmon at [5] to [100], unit inferred.
In assay [14] the target is A244 Δ11 gp120 (HIV-1). Nature of the assay: SPR titration, binding to CH01 mAb; A244 gDneg D11 at [10], [25], [50], [75], [100], unit inferred.
For assay [15], the target named is MN gDΔ11 gp120 (Herpes simplex virus; HIV-1). Nature of the assay: Kd table; row B.MN gp120, column CH01 gD+; method not given.
Assay [16] has as its target A244 gp120 (no modifications) (HIV-1). Nature of the assay: SPR titration, binding to CH01 mAb; A244 gDneg at [10] to [100], unit inferred.
Assay [17] concerns the target A244 gDΔ11 gp120 (Herpes simplex virus; HIV-1). Put plainly: SPR titration, binding to CH01 mAb; A244 gD+ 293Tmon at [5], [10], [25], [50], [100], unit inferred.
The target is the same in assay [18]. Put plainly: SPR titration, binding to CH01 mAb; A244 gD+ 293Tmon at [5] to [100], unit inferred; footnote: '* Fit deviation, need to lower Ag density'.
Assay [19] has as its target A244-rgp120 (RV144 vaccine immunogen) (Herpes simplex virus; HIV-1). Put plainly: SPR; 19b captured on anti-Fc surface, RV144 A244-rgp120 injected at 0.5-5 µg/mL; fitted curves [lower row].
The target of assay [20] is MN-rgp120 (RV144 vaccine immunogen) (Herpes simplex virus; HIV-1). Put plainly: SPR, mAb captured on anti-Fc surface, gp120 as analyte (FIG. 28).
Assay [21] shares this target. Put plainly: SPR; 19b captured on anti-Fc surface, RV144 MN-rgp120 injected at 0.5-5 µg/mL; fitted curves.
Assay [22] deals with MN gDΔ11 gp120 (Herpes simplex virus; HIV-1). Put plainly: Kd table; row B.MN gp120, column PG9 gD+; method not given.
Assay [23] concerns the target A244 gp120 (no modifications) (HIV-1). Put plainly: Kd table; row AE.A244 gp120, column PG9 gD-; method not given.
The target of assay [24] is A244 Δ11 gp120 (HIV-1). Put plainly: SPR titration, binding to PG9 mAb (IAVI PG9); A244 gDneg D11 at [10] to [100], unit inferred.
For assay [25], the target named is A244 gDΔ11 gp120 (Herpes simplex virus; HIV-1). Put plainly: SPR titration, binding to PG9 mAb (IAVI PG9); A244 gD+293Tmon at [10], [20], [30], [40], unit inferred.
In assay [26] the target is MN gp120 (no modifications) (HIV-1). Put plainly: Kd table; row B.MN gp120, column PG9 gD-; method not given.
Assay [27] addresses A244 gDΔ11 gp120 (Herpes simplex virus; HIV-1). Put plainly: SPR titration, binding to PG9 mAb (IAVI PG9); A244 gD+293Tmon at [10] to [40], unit inferred.
Assay [28] has the same target. Nature of the assay: Kd table; row AE.A244 gp120, column PG9 gD+; method not given.
Assay [29] deals with 92TH023 gDΔ11 gp120 (Herpes simplex virus; HIV-1). Nature of the assay: Kd table; row AE.92TH023 gp120, column PG9 gD+; method not given.
Assay [30] addresses A244 Δ11 gp120 (HIV-1). Nature of the assay: SPR titration, binding to PG9 mAb (IAVI PG9); A244 gDneg D11 at [10], [25], [50], [75], [100], unit inferred.
The target in assay [31] is A244 Δ11 gp120 (HIV-1). Put plainly: SPR titration, binding to CH03 mAb; A244 gDneg D11 at [10] to [100], unit inferred.
Assay [32] concerns the target A244 gp120 (no modifications) (HIV-1). Put plainly: SPR titration, binding to CH03 mAb; A244 gDneg at [10] to [100], unit inferred.
Assay [33] deals with A244 Δ11 gp120 (HIV-1). Put plainly: SPR titration, binding to CH03 mAb; A244 gDneg D11 at [10], [25], [50], [75], [100], unit inferred.
For assay [34], the target named is A244 Δ11 gp120 (HIV-1). Nature of the assay: SPR; 17b flowed over A244gD- d11 (batch 110608) held on immobilised sCD4 (sCD4-triggered Env); response axis in RU.
Assay [35] has as its target A244 Δ11 gp120 (HIV-1). Put plainly: SPR; 17b flowed over A244gD- d11 (batch 110608) held on immobilised T8 (T8-triggered Env); response axis in RU.
Assay [36] has as its target A244 Δ11 gp120 (HIV-1). Put plainly: SPR; 17b flowed over A244gD- d11 (batch 110608) held on immobilised A32 (A32-triggered Env); response axis in RU.
The target of assay [37] is A244 Δ11 gp120 (HIV-1). Put plainly: SPR; 17b flowed over A244gD- d11 (batch 110608) held on immobilised A32 (A32-triggered Env).
The target in assay [38] is A244 Δ11 gp120 (HIV-1). Put plainly: SPR; 17b flowed over A244gD- d11 (batch 110608) held on immobilised sCD4 (sCD4-triggered Env).
The target in assay [39] is A244 Δ11 gp120 (HIV-1). Put plainly: SPR; A244 gp120 gD- Δ11 293T monomer batch 110608 flowed over immobilised T8; response axis in RU.
Assay [40] addresses A244 Δ11 gp120 (HIV-1). Nature of the assay: SPR; A244 gp120 gD- Δ11 293T monomer batch 110608 flowed over immobilised T8; ratio to ConS gp140.

This note sets out measurements from patent US10040826.

With V2V3 bnAb CH01 (antibody), the dissociation constant (Kd) was determined as 0.457 µM in [1]; 0.2 µM in assay [2]; 3.1 µM in assay [3]; 0.43 µM in assay [4]; 2.1 µM in assay [7]; 0.317 µM in assay [8]. For the same substance, the Kd in assay [9] was 0.278 µM; in assay [10], 1.64 µM; in [15], 0.288 µM; in [18], 0.29 µM. In addition, the koff in [4] was determined as 0.0135 s⁻¹; in [8], 0.0156 s⁻¹; in assay [9], 0.0099 s⁻¹; in assay [10] it was 0.00438 s⁻¹; in [13] it was 0.0028 s⁻¹; in assay [16], 0.00237 s⁻¹. Further, the kon in assay [5] is 760 M⁻¹ s⁻¹; in assay [8], 49000 M⁻¹ s⁻¹; in assay [9], 37200 M⁻¹ s⁻¹; in [10], 3730 M⁻¹ s⁻¹; in assay [14], 31100 M⁻¹ s⁻¹; in assay [17] it was 9800 M⁻¹ s⁻¹. This substance also had a percent blocking of RV144 vaccinee IgG binding in assay [6] of 24.6%. Further, the fold faster association rate than with unmodified gp120 in assay [11] and in assay [12] was 10 fold throughout. The fold higher affinity than for unmodified A244 gp120 in assay [11] and in [12] was 5 fold each time.
VRC01 (CD4 bs mAb) (antibody): in assay [8], the Kd turned out to be 0.0367 µM, the off-rate constant (koff) amounted to 0.00039 s⁻¹ and the on-rate (kon) was found to be 9700 M⁻¹ s⁻¹. Also, in assay [9], the dissociation constant (Kd) was 0.0158 µM, the koff was found to be 0.00021 s⁻¹ and the association rate constant (kon) was 13300 M⁻¹ s⁻¹. In [10], this substance yielded an equilibrium dissociation constant (Kd) of 0.0157 µM, a dissociation rate constant (koff) of 0.00028 s⁻¹ and a kon of 17600 M⁻¹ s⁻¹.
In the case of V3 mAb 19b (antibody), the Kd in [19] was determined as 0.0153 µM; in assay [8], 0.00654 µM; in assay [9], 0.00824 µM; in assay [10], 0.0118 µM; in [21], 0.0034 µM. The figures for the koff in [8], in assay [9] and in assay [10] were 0.00156 s⁻¹, 0.0014 s⁻¹ and 0.00154 s⁻¹, respectively. Further, the on-rate (kon) in [8] amounted to 239000 M⁻¹ s⁻¹; in assay [9] it was 170000 M⁻¹ s⁻¹; in assay [10], 130000 M⁻¹ s⁻¹. Moreover, the fold lower Kd than for A244-rgp120 in assay [20] is 5 fold.
In the case of V2V3 bnAb PG9 (antibody), the dissociation constant Kd in assay [22] was found to be 0.542 µM; in assay [23], 1.1 µM; in [24], 0.0887 µM; in assay [26] it was 0.347 µM; in assay [27], 0.0627 µM; in assay [28], 0.128 µM. Moreover, the Kd in assay [29] came to 0.212 µM; in assay [8], 0.0526 µM; in assay [9], 0.0481 µM; in [10], 0.183 µM. Also, the koff came to 0.00102 s⁻¹ in assay [24]; 0.00105 s⁻¹ in assay [27]; 0.00057 s⁻¹ in assay [8]; 0.00055 s⁻¹ in assay [9]; 0.0011 s⁻¹ in [10]. Besides, the on-rate constant (kon) was 16800 M⁻¹ s⁻¹ in [25]; 11500 M⁻¹ s⁻¹ in assay [30]; 10900 M⁻¹ s⁻¹ in [8]; 11500 M⁻¹ s⁻¹ in assay [9]; 5000 M⁻¹ s⁻¹ in [10]. The fold higher affinity than for unmodified A244 gp120 in assay [11] and in assay [12] was 3 fold each time.
Regarding “mAb CH03 (V2,V3 conformational) (antibody)”, the equilibrium dissociation constant (Kd) in assay [31] stood at 0.62 µM; in [32] it was 5.5 µM. Besides, the koff was 0.0167 s⁻¹ in [31] and 0.0055 s⁻¹ in [32]. Moreover, the on-rate (kon) in [33] came to 27000 M⁻¹ s⁻¹.
Take “CCR5 receptor gp120 binding site mAb 17b (antibody)”: the Req is 166 in [34], -169 in assay [35] and 529 in assay [36]. The results for the 17b binding ratio in [37] and in [38] were 0.327 and 0.316, respectively.
Take V2 mAb 830A (antibody): the dissociation constant Kd amounted to 0.00156 µM in [8], 0.0017 µM in assay [9] and 0.0102 µM in [10]. Further, the figures for the koff in assay [8], in [9] and in assay [10] were 8.8e-05 s⁻¹, 7e-05 s⁻¹ and 0.00022 s⁻¹, respectively. The kon turned out to be 59900 M⁻¹ s⁻¹ in [8], 41100 M⁻¹ s⁻¹ in assay [9] and 21800 M⁻¹ s⁻¹ in assay [10]. Further, the fold more avid than to unmodified A244 gp120 in assay [11] and in [12] was 5 fold in each case.
On to T8 (C1 mAb) (antibody), for which, in [39], the Req is 1250. Besides, the Relative Binding Env/ConS gp140 in assay [40] was determined as 2.88.
